Two molecules from patent US8822187B1, “Polypeptides, nucleic acid molecules, and methods for synthesis of triterpenes” (University of Kentucky Research Foundation, priority 2011, dated 2014) can be followed below.

Experiment [1] has as its target T1, Botryococcus braunii race B squalene synthase-like 1 (SSL-1), wild type, hexa-histidine tagged, SEQ ID NO: 2 (Botryococcus braunii, UniProt G0Y286).
T1 construct: FPP substrate with or without NADPH
T1 sequence (G0Y286 1-403): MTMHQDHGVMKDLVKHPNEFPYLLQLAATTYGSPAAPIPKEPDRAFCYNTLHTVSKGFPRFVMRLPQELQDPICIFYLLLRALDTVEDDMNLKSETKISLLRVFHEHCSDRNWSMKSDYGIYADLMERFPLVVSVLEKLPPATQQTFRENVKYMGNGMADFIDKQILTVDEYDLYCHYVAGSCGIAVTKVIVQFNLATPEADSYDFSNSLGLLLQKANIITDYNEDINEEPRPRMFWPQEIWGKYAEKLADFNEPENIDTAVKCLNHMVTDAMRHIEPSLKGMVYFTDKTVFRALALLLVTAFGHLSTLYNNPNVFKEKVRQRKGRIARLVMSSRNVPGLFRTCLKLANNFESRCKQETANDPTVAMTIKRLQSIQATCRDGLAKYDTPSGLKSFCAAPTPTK
The experiment can be described thus: Michaelis-Menten enzyme kinetics of the SSL-1 reaction (radiolabeled FPP to PSPP). Format: biochemical. As to the method: FIG. 5 depicts Michaelis-Menten enzyme kinetics of the SSL-1 reaction. Enzyme assays (50 μl) were set up as described in the methods section with purified SSL-1 (0.2-1.0 μg), 0.1% triton X-100, ±2 mM NADPH, and the indicated concentration of ^3H-FPP. Assays were incubated for 15 min at 37° C. and stopped by addition of 50 μl 0.5 M EDTA. The reactions were then extracted 3× with 200 μl water saturated 1-butanol and pooled in a 4 ml glass screw cap vial. The butanol was evaporated with a stream of nitrogen gas and the white residue was resuspended in 2 ml of acid phosphatase solution (20% 1-propanol (v/v), 100 mM sodium acetate pH 4.7, 0.1% Triton X-100, 10 units sweet potato acid phosphatase) and incubated overnight (12-16 h) in a 28° C. shaker. […] The standards were visualized with iodine vapors and the zones corresponding to FOH (rf=0.65) and PSOH (rf=0.45) were scraped and analyzed by scintillation spectroscopy. […] The data was analyzed using the SigmaPlot Enzyme Kinetics 1.3 software. […]
Purification of the bacterial expressed enzymes was afforded by the amino-terminal hexa-histidine tag using His-Select Cobalt affinity gel (Sigma) columns according the manufacturer's recommendations. Recovery of proteins with the expected molecular sizes was determined by SDS-PAGE. […]

Experiment [2] deals with TN7 yeast line. The experiment can be described thus: Expression of SSL genes in TN7 yeast line, hexane extractable metabolites by GC-MS. Format: cell-based. Conditions: gene expressed separately in yeast. From the text:
(§1) FIG. 6 depicts the functional characterization of the squalene synthase-like genes of Botryococcus braunii race B. The squalene synthase-like genes, SSL-1, SSL-2 and SSL-3, were expressed in yeast separately (SSL-1 (B), SSL-2(C) or SSL-3(D)) or in combinations (SSL-1+SSL-2(E), SSL-1+SSL-3(F)) and the hexane extractable metabolites profiled by GC-MS. The chemical profile of yeast not engineered with any gene constructs serves as the background control (A). […] Data (J) represents mean±S.E.M. obtained from three independent experiments (n=3). The chromatograms (A-I) are also annotated for the elution behavior of botryococcene (1), squalene (2), presqualene alcohol (3) and bisfarnesyl ether (4).
FIG. 10 includes a comparison of botryococcene production in yeast engineered with different configurations of SSL-1 and SSL-3. Yeast line TN7 was engineered with the SSL-1 and SSL-3 genes on separate plasmids (squares), with gene fusions (SSL-1 fused to SSL-3 via a triplet repeat of GGSG (triangles), or vice versa (diamonds)), or with 63 or 71 amino acids of the carboxy terminus of the Botryococcus squalene synthase, sequences containing a membrane spanning domain, appended to the carboxy termini of the SSL-1 and SSL-3 enzymes, respectively (circles). The data represents mean±S.E.M.
The various recombinant yeast expression vectors were introduced into the TN7 yeast line via lithium acetate transformation, followed by selection for uracil and leucine auoxtrophic growth (Takahashi, et al. (2007)). […] Individual colonies of TN7 and the various TN7-transformants were subsequently grown in 25 ml of YPDE (nutrient rich) or Yeast Synthetic Drop-out medium (selection) for the indicated time at 25° C. before analyzing the cultures for production of novel triterpene components. In brief, 1 ml aliquots of the culture were combined with 1 ml of acetone, vigorously mixed, and incubated at room temperature for 10 min. One ml of hexane was added and mixed vigorously for 60 sec. […] The dried extract was resuspended in 50-500 μl of n-hexane and a 1 μl aliquot analyzed by GC-MS as described above. […]

The nature of experiment [3]: Purified bacterial-expressed enzymes incubated with FPP, products by GC-MS or TLC/scintillation counting. Format: biochemical. The conditions noted are these: FPP as substrate, enzyme assayed alone.
Description: as §1
The recombinant vectors were transformed into E. coli strain BL21(DE3) according to the manufacturer's recommendations (Novagen). The selected lines were grown with kanamycin selection at 37° C. with vigorous shaking until the cultures reached an optical density of ˜0.8 (OD600 nm), then expression of the corresponding SSL gene induced by addition of 0.5 mM isopropylthio-β-D-galactoside (IPTG) and the cultures incubate for an additional 3 to 20 h with shaking at room temperature. One hundred ml of the culture was subject to centrifugation at 4,000 g for 10 min, the pelleted cells resuspended in 10 ml of lysis buffer containing 50 mM NaH2PO4, pH 7.8, 300 mM NaCl, 10 mM imidazole, 1 mM MgCl2, 1 mM PMSF, 1% glycerol (v/v), then sonicated 4× for 10 sec with a microprobe sonicator at 60% maximum power. The samples were cooled on ice for 2 min between sonication treatments. The sonicate was centrifuged at 16,000 g for 10 min at 4° C. and the supernatant used for purification of the hexa-histidine tagged enzymes.
Purification of the bacterial expressed enzymes was afforded by the amino-terminal hexa-histidine tag using His-Select Cobalt affinity gel (Sigma) columns according the manufacturer's recommendations. Recovery of proteins with the expected molecular sizes was determined by SDS-PAGE. The purified protein fractions were concentrated using Amicon Ultra (0.5 ml, 10K) centrifugation filter units and stored in 300 mM NaCl, 20 mM Tris-HCl pH 7.5, 5 mM dithiothreitol, 2 mM MgCL2, 50% glycerol (v/v) at −20° C. for 2-3 weeks without noticeable loss of activity.
Typical enzyme assays were initiated by mixing aliquots of purified enzyme with 50 mM Mops, pH 7.3, 20 mM MgCl2, 2.5 mM 2-mercaptoethanol, 10 μM [1-^3H]-FPP (˜2×10^5 dpm total), and 2 mM NADPH in total reaction volume of 50 μl. Reactions were incubated at 37° C. for 1 h and then extracted with 100 μl n-hexane or 100 ul MTBE. Forty μl of the n-hexane or MTBE extract was then spotted onto silica TLC plates with authentic standards of botryococcene and squalene and developed with n-hexane, or standards of bisfarnesyl ether and developed with n-hexane:MTBE, 25:1. The standards were visualized with iodine vapors and TLC zones corresponding to the standards were scrapped and analyzed by scintillation spectrometry. If Botryococcus lysate was added to enzyme assays, typically 5 μl of lysate (corresponding to 10 μg total protein) prepared from B. braunii cells according to Okada et al. (1) was added. […] Extracts were resuspended in 50 μl hexane and an aliquot analyzed by GC-MS with a Varian CP-3800 GC coupled to a Varian Saturn 2200 MS/MS (Varian Medical Systems) using a Supelco SLB-5 ms fused silica capillary column (30 m×0.25 mm×0.25 μM film thickness, Supelco). […]

Experiment [4] can be described thus: Secondary enzyme assays of SSL-3 or SSL-2 with PSPP versus FPP. Format: biochemical. The conditions noted are these: 2 mM NADPH, 1 μg enzyme, 37° C., 15 min. As to the method:
Two primary enzyme assays (500 μl) were set up with 20 μg of purified SSL-1 or Nicotiana benthamiana squalene synthase (TSS) plus 40 μM ^3H-FPP. The assays were incubated at 37° C. for 1 h, then extracted 3× with 500 μl water saturated 1-butanol, pooled, and evaporated under a stream of nitrogen gas. The white residue was resuspended in 50 μl of 25 mM NH4HCO3 in 70% ethanol (v/v). An aliquot of the resuspension was analyzed by the acid phosphatase assay (described in supplemental FIG. 4) and shown to consist of 45% and 40% PSPP for the SSL-1 and TSS primary incubations, respectively. […] It was calculated that 1 μl of each resuspension contained ˜150 pmoles of 3H-PSPP. […] For comparison, enzyme assays were also set up containing 3 μM ^3H-FPP, 2 mM NADPH and either 1 μg each of SSL-1 plus SSL-3, or SSL-1 plus SSL-2. Additional control assays contained 5 μM ^3H-FPP, 2 mM NADPH, and either 1 μg of SSL-3 or SSL-2. The reactions were incubated at 37° C. for 15 min, stopped by addition of 50 μl 0.5 M EDTA, and extracted with 100 μl n-hexane. Aliquots of the hexane extracts, along with standards of squalene and botryococcene, were separated by silica TLC using n-hexane as the developing solvent. Standards were visualized with iodine vapors and the corresponding zones were analyzed by scintillation spectroscopy. […]

In the case of `NC(=O)C1=CN([C@@H]2O[C@H](COP(=O)(O)OP(=O)(O)OC[C@H]3O[C@@H](n4cnc5c(N)ncnc54)[C@H](OP(=O)(O)O)[C@@H]3O)[C@@H](O)[C@H]2O)C=CC1` [NADPH], the “stimulation of activity by NADPH addition” value in experiment [1] (NADPH addition, radiolabeled FPP substrate) is on record as “no stimulation”. Further, in experiment [1] (±2 mM NADPH, 3H-FPP substrate, 15 min at 37° C.), the “effect of NADPH addition on enzyme activity (difference)” value is recorded as “less than 4%”.

B1: SSL-3: Botryococcus braunii race B squalene synthase-like 3 enzyme; converts PSPP to botryococcene (protein)
chain: MKLREVLQHPGEIIPLLQMMVMAYRRKRKPQDPNLAWCWETLIKVSRSYVLVIQQLPEVLQDPICVNYLVLRGLDTLQDDMAIPAEKRVPLLLDYYNHIGDITWKPPCGYGQYVELIEEYPRVTKEFLKLNKQDQQFITDMCMRLGAEMTVFLKRDVLTVPDLDLYAFTNNGPVAICLTKLWVDRKFADPKLLDREDLSGHMAMFLGKINVIRDIKEDVLEDPPRIWWPKEIWGKYLKDLRDIIKPEYQKEALACLNDILTDALRHIEPCLQYMEMVWDEGVFKFCAVPELMSLATISVCYNNPKVFTGVVKMRRGETAKLFLSVTNMPALYKSFSAIAEEMEAKCVREDPNFALTVKRLQDVQALCKAGLAKSNGKVSAKGA
Consider B1, for which the “products accumulating in yeast” value in experiment [2] is given as “did not cause the accumulation of any distinct products”. Besides, in experiment [3], the “squalene or botryococcene biosynthesis by purified enzyme in vitro” value is “neither bacterial-expressed, purified enzymes exhibited any botryococcene biosynthesis”. In addition, in experiment [4], the “biosynthesis from PSPP versus FPP” value is “efficiently catalyze the biosynthesis of squalene and botryococcene, respectively, from PSPP but not FPP”.
